Experimental data taken from patent publication US20210101937A1.

Biological target: CD137 (UniProt Q07011)
Test: cell-based or functional assay

Chain of CD137 (Q07011 24-255 limits assumed): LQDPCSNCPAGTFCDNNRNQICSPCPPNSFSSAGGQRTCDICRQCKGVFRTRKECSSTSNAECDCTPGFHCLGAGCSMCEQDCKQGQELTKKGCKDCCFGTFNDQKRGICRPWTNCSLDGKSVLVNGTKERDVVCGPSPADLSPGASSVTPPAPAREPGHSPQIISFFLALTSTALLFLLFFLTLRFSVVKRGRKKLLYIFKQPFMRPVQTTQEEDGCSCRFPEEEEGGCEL

| Substance | EC50, CD137 reporter coculture assay with PC3 cells | Emax, CD137 reporter coculture assay with PC3 cells (fold over background) | EC50, CD137 reporter coculture assay with NCI-H292 cells | Emax, CD137 reporter coculture assay with NCI-H292 cells (fold over background) |
| --- | --- | --- | --- | --- |
| BCY9173 (peptide) | 540 pM | 42 |  |  |
| BCY10000 (peptide) |  |  | 1100 pM | 28 |
